Source: US6627739

Legend:
[1] = biological target: MBP-C125sw fusion protein [MBP: P0AEX9]
[2] = biological target: Swedish mutant APP (βAPP 751 sw) expressed from pohCK751 in 293T cells, P05067
[3] = biological target: wild-type APP (βAPP 751) expressed from pohCK751 in 293T cells, P05067
wild-type APP (βAPP 751) expressed from pohCK751 in 293T cells, P05067, sequence (P05067 whole entry, looked up): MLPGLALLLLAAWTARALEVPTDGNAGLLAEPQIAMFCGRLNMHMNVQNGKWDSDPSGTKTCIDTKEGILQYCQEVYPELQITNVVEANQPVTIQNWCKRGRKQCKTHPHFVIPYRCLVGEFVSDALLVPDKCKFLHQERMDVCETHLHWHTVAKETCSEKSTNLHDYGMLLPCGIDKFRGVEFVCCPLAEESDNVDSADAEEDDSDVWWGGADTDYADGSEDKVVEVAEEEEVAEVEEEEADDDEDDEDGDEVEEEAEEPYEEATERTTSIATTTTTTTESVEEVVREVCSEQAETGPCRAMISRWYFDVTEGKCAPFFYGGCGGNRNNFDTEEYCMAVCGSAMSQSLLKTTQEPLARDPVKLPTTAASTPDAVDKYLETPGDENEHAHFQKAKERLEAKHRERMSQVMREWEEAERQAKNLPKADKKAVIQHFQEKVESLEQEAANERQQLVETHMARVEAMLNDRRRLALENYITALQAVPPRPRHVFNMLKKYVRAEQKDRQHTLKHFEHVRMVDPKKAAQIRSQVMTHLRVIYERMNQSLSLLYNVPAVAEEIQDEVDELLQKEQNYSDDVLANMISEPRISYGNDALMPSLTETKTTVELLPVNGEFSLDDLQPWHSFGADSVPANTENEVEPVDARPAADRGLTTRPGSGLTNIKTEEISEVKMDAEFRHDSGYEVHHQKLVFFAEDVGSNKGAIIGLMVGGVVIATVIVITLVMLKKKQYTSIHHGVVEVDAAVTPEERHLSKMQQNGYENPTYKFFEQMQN

Swedish mutant APP (βAPP 751 sw) expressed from pohCK751 in 293T cells, P05067, sequence (P05067 whole entry, looked up, change not shown): as the sequence (P05067 whole entry, looked up) above

B1: FLp501, full length recombinant β-secretase having a C-terminal flag sequence (protein)
chain: ETDEEPEEPGRRGSFVEMVDNLRGKSGQGYYVEMTVGSPPQTLNILVDTGSSNFAVGAAPHPFLHRYYQRQLSSTYRDLRKGVYVPYTQGKWEGELGTDLVSIPHGPNVTVRANIAAITESDKFFINGSNWEGILGLAYAEIARPDDSLEPFFDSLVKQTHVPNLFSLQLCGAGFPLNQSEVLASVGGSMIIGGIDHSLYTGSLWYTPIRREWYYEVIIVRVEINGQDLKMDCKEYNYDKSIVDSGTTNLRLPKKVFEAAVKSIKAASSTEKFPDGFWLGEQLVCWQAGTTPWNIFPVISLYLMGEVTNQSFRITILPQQYLRPVEDVATSQDDCYKFAISQSSTGTVMGAVIMEGFYVVFDRARKRIGFAVSACHVHDEFRTAAVEGPFVTLDMEDCGYNIPQTDESTLMTIAYVMAAICALFMLPLCLMVCQWRCLRCLRQQHDDFADDISLLKYKDDDDK
cleavage of substrate [1]: Both enzymes exhibited activity in cleaving β-secretase substrates such as MBP-C125

B2: recombinant full-length human β-secretase (1-501) expressed from pCEK clone 27 / pCFβA2 in 293T or Cos A2 cells (protein)
chain: ETDEEPEEPGRRGSFVEMVDNLRGKSGQGYYVEMTVGSPPQTLNILVDTGSSNFAVGAAPHPFLHRYYQRQLSSTYRDLRKGVYVPYTQGKWEGELGTDLVSIPHGPNVTVRANIAAITESDKFFINGSNWEGILGLAYAEIARPDDSLEPFFDSLVKQTHVPNLFSLQLCGAGFPLNQSEVLASVGGSMIIGGIDHSLYTGSLWYTPIRREWYYEVIIVRVEINGQDLKMDCKEYNYDKSIVDSGTTNLRLPKKVFEAAVKSIKAASSTEKFPDGFWLGEQLVCWQAGTTPWNIFPVISLYLMGEVTNQSFRITILPQQYLRPVEDVATSQDDCYKFAISQSSTGTVMGAVIMEGFYVVFDRARKRIGFAVSACHVHDEFRTAAVEGPFVTLDMEDCGYNIPQTDESTLMTIAYVMAAICALFMLPLCLMVCQWRCLRCLRQQHDDFADDISLLK
Aβ(x-40) production, ELISA of conditioned media [2]: approximate 2-fold increase in Aβ(x-40)
Aβ(x-40) production, ELISA of conditioned media [3]: approximately 8-fold increase in Aβ(x-40) production

B3: naturally occurring human β-secretase purified from human brain (protein)
chain: ETDEEPEEPGRRGSFVEMVDNLRGKSGQGYYVEMTVGSPPQTLNILVDTGSSNFAVGAAPHPFLHRYYQRQLSSTYRDLRKGVYVPYTQGKWEGELGTDLVSIPHGPNVTVRANIAAITESDKFFINGSNWEGILGLAYAEIARPDDSLEPFFDSLVKQTHVPNLFSLQLCGAGFPLNQSEVLASVGGSMIIGGIDHSLYTGSLWYTPIRREWYYEVIIVRVEINGQDLKMDCKEYNYDKSIVDSGTTNLRLPKKVFEAAVKSIKAASSTEKFPDGFWLGEQLVCWQAGTTPWNIFPVISLYLMGEVTNQSFRITILPQQYLRPVEDVATSQDDCYKFAISQSSTGTVMGAVIMEGFYVVFDRARKRIGFAVSACHVHDEFRTAAVEGPFVTLDMEDCGYNIPQTDESTLMTIAYVMAAICALFMLPLCLMVCQWRCLRCLRQQHDDFADDISLLK
Specific Activity (MBP-C125 sw assay), Anion Exchange Pool (nM/h/µg prot.) [1]: 1.49e+06

B4: 452stop, recombinant β-secretase truncated at position 452 (1-452) (protein)
chain: ETDEEPEEPGRRGSFVEMVDNLRGKSGQGYYVEMTVGSPPQTLNILVDTGSSNFAVGAAPHPFLHRYYQRQLSSTYRDLRKGVYVPYTQGKWEGELGTDLVSIPHGPNVTVRANIAAITESDKFFINGSNWEGILGLAYAEIARPDDSLEPFFDSLVKQTHVPNLFSLQLCGAGFPLNQSEVLASVGGSMIIGGIDHSLYTGSLWYTPIRREWYYEVIIVRVEINGQDLKMDCKEYNYDKSIVDSGTTNLRLPKKVFEAAVKSIKAASSTEKFPDGFWLGEQLVCWQAGTTPWNIFPVISLYLMGEVTNQSFRITILPQQYLRPVEDVATSQDDCYKFAISQSSTGTVMGAVIMEGFYVVFDRARKRIGFAVSACHVHDEFRTAAVEGPFVTLDMEDCGYNIPQTDEYKDDDDK
cleavage of substrate [1]: The C-terminal truncated form of the enzyme exhibited activity in leaving the MBP-C125sw substrate as well as the P26-P4′ substrate
